Results reported in paper PMC8254717, “Characterization of the DdrD protein from the extremely radioresistant bacterium Deinococcus radiodurans”.

Key:
[1] = target: T1, DdrD (Deinococcus radiodurans R1 (ATCC 13939), UniProt Q9RXI7 1-198); assay: EMSA; 5 mM Mg2+; DdrD up to 8 uM; not completely shifted at highest concentration; proteinase K releases DNA; EMSA: 40 mM Tris-HCl pH 7.8, 5 mM MgCl2, 1.5 mM DTT, 50 mM NaCl, 2.5% glycerol, 3.3 nM DNA, 15 min at 4 C; 6% native PAGE in 0.25X TBE with 10% glycerol; settings: protein: recombinant; tags: none (untagged; native stop codon in reverse primer, pET21a NdeI/EcoRI); label: 5' Cy5
T1 sequence: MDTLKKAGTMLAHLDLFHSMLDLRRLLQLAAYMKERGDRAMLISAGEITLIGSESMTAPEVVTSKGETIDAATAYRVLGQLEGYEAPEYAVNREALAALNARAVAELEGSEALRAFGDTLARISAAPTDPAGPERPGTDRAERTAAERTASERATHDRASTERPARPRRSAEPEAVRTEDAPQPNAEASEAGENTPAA

[2] = target: T1, DdrD; assay: EMSA; 5 mM Mg2+; same DdrD concentrations as oligo 1; EMSA: 40 mM Tris-HCl pH 7.8, 5 mM MgCl2, 1.5 mM DTT, 50 mM NaCl, 2.5% glycerol, 3.3 nM DNA, 15 min at 4 C; 6% native PAGE in 0.25X TBE with 10% glycerol; settings: protein: recombinant; tags: none (untagged; native stop codon in reverse primer, pET21a NdeI/EcoRI); label: 5' Cy5 on strand 1; blunt

Binder | binding result [1] | binding result [2]
oligo 1 (67-mer ssDNA) (ssDNA) DNA: CTGTTTAAGAAATTCACCTCGAAAGCAAGCTGATAAACCGATACAATTAAAGGCTCCTTTTGGAGCC | binds | –
oligo 2 (67-mer dsDNA) (dsDNA) DNA 1: CTGTTTAAGAAATTCACCTCGAAAGCAAGCTGATAAACCGATACAATTAAAGGCTCCTTTTGGAGCC DNA 2: GGCTCCAAAAGGAGCCTTTAATTGTATCGGTTTATCAGCTTGCTTTCGAGGTGAATTTCTTAAACAG | – | no binding
